Biological target: CD33 on HL60 leukemia cells (human) (UniProt P20138)
Assay: cell-based or functional assay

Chain of CD33 on HL60 leukemia cells (human) (P20138 18-364 limits assumed): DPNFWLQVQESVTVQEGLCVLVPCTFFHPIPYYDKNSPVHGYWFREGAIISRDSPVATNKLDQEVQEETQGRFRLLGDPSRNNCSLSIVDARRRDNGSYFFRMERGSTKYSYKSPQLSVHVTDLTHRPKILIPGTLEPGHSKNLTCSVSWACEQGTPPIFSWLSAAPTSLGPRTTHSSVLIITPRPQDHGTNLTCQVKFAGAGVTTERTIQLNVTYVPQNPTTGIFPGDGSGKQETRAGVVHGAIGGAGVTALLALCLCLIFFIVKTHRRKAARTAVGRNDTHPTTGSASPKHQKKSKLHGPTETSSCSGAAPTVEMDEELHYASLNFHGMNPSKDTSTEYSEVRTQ

Substance: Lintuzumab conjugated with Actinium-225 (antibody)
- LD50 (dose at which 50% of the cells were killed), HL60 cell suspension: 8 pCi/mL

Source: patent US20200283539A1
